In article PMC8486122, “Structural basis for antibody binding to adenylate cyclase toxin reveals RTX linkers as neutralization-sensitive epitopes” (PLoS Pathogens, 2021):

T1: 123cap (cap fusion variant F5: RTX blocks I–III fused to the block V capping structure) (Bordetella pertussis (strain not named …, stabilised))
T1 construct: source: E. coli BL21 DE3, purified (Ni-NTA, SEC); not shown: 8xHis, N-terminal, kept
T1 chain: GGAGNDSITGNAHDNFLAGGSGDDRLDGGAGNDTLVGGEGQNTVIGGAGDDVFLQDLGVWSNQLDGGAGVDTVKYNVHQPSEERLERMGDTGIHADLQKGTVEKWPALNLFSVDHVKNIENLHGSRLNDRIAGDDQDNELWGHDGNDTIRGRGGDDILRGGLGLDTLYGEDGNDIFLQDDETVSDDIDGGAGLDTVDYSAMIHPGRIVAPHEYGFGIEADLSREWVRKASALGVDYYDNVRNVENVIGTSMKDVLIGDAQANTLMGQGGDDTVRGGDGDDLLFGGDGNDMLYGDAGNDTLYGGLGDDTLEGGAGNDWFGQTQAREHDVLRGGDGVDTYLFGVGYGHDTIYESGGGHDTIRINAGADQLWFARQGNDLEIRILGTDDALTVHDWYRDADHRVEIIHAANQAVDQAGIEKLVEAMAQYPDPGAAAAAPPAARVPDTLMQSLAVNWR


Columns and labels:
[1] = biological target: T2, RTX751 (ACT residues 751–1706) (Bordetella pertussis (strain Tohama I / …, UniProt P0DKX7)); assay: SPR; conditions: both partners purified
T2 construct: also called full RTX domain; full RTX

[2] = biological target: T1, 123cap (cap fusion variant F5: RTX …); assay: SPR; conditions: both partners purified

| Binder | Kd [1] | Kd [2] |
| --- | --- | --- |
| M2B10 Fab (Fab, V domains shown) VH: EVQLQQSGAELVRPGTSVKVSCKASGYAFTNYLIEWVKQRPGQGLEWIGVINPGIGNTNYNEKFKGKATLTADKSSSTVYMQLSSLTSDDSAVYFCARGLNYGSSQHWYFDVWGAGTSVTVSS VL: IVMTQSPAILSASLGERVTMTCTASSSVSSSYLHWYQQKPGSSPKLWIYSTSNLASGVPARFSGSGSGTSYSLTISSMEAEDAATYYCHQYHRSPPTFGAGTKLEIK | 0.75 nM | 0.6 nM |
| M1H5 Fab (Fab, V domains shown) VH: EVNLVESGGDLVKPGGSLKLSCAASGFTFSSYGMSWVRQTPDKRLEWVATISSGGTYTYYPDSVKGRFTISRDNAKNTLYLQMSSLKSEDTAMYYCAREIMRGGGYYFDYWSQGTTLTVSS VL: DIQMIQSTSSLSASLGDRVTISCRASQDISNYLNWYQQKPDGTVKLLIYYTSRLHSGVPSRFSGSGSGTDYSLTISNLEQEDIATYFCQQGNTLPYTFGGGTKLEIK | 0.8 nM | 0.7 nM |
